The target in this test is T1, BMP-9 (UniProt Q9UK05).
T1 sequence (looked up): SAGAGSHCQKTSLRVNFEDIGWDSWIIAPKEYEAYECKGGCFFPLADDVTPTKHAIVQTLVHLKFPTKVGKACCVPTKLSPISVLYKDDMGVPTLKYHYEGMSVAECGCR
As to the kind of experiment: cell-based or functional assay.

A value given as a limit tells only on which side of the number the result lay.

The substance “P1193 (hActRIIB L33Y F58E, 10 aa linker, IgG1-DL Fc) (Fc fusion)” displayed a BMP-9 IC50 (nM), BMP-reporter HepG2 cell-based assay of 485 nM and a fold decrease of inhibition potency on BMP-9, BMP-reporter HepG2 assay above 100 fold.
Consider “P1198 (hActRIIB L33Q F58E, 3 aa GGG linker, IgG1-DL Fc) (Fc fusion)”, for which the BMP-9 IC50 (nM), BMP-reporter HepG2 cell-based assay was 667 nM and the fold decrease of inhibition potency on BMP-9, BMP-reporter HepG2 assay was above 100 fold.

Source of the values: patent publication US20260139032A1.
